Experimental data as given in patent publication US20250263462A1 (US Dept. of Health and Human Services, published 2025).

Columns and labels:
Assay in all cases: cell-based or functional assay
[1] = biological target: HLA-A11 on COS7/A11 cells expressing the KRAS G12V minigene (23-mer SEQ ID NO: 120) (human, UniProt A*11:01)
[2] = biological target: HLA-A11 on COS7/A11 cells expressing the WT KRAS minigene (23-mer SEQ ID NO: 118) (human, UniProt A*11:01)
[3] = biological target: HLA-A11 on COS7/A11 cells expressing the KRAS G12D minigene (23-mer SEQ ID NO: 119) (human, UniProt A*11:01)
[4] = biological target: T1, KRAS G12D 10-mer peptide … (SEQ ID NO: 2) presented by HLA-A11 on pulsed cells (human, UniProt A*11:01)
[5] = biological target: T2, WT KRAS 10-mer peptide (SEQ ID NO: 30) presented by HLA-A11 on pulsed cells (human, UniProt A*11:01)
[6] = biological target: T1, KRAS G12D 10-mer peptide … (SEQ ID NO: …); remark: listed apart in the source
[7] = biological target: T3, KRAS G12D 9-mer peptide KRAS8-16 … (SEQ ID NO: 34) presented by HLA-A11 on pulsed cells (human, UniProt A*11:01)
[8] = biological target: T2, WT KRAS 10-mer peptide (SEQ ID NO: 30) …; remark: listed apart in the source
[9] = biological target: T3, KRAS G12D 9-mer peptide KRAS8-16 … (SEQ …); remark: listed apart in the source
[10] = biological target: T2, WT KRAS 10-mer peptide (SEQ ID NO: 30) …; remark: listed apart in the source
[11] = biological target: WT KRAS 9-mer peptide (SEQ ID NO: 31) presented by HLA-A11 on pulsed cells (human, UniProt A*11:01)

B1: TRAV3-3*01/TRBV4*01 murine anti-KRAS G12V TCR (SEQ ID NOs: 133 and 134) (TCR, V domains shown)
V domain 1: GEQVEQRPPHLSVREGDSAVITCTYTDPNSYYFFWYKQEPGASLQLLMKVFSSTEINEGQGFTVLLNKKDKRLSLNLTAAHPGDSAAYFCAVSGGTNSAGNKLTFGIGTRVLVRP
V domain 2: ETAVFQTPNYHVTQVGNEVSFNCKQTLGHDTMYWYKQDSKKLLKIMFSYNNKQLIVNETVPRRFSPQSSDKAHLNLRIKSVEPEDSAVYLCASSRDWGPAEQFFGPGTRLTVLE
With B1 the “IFN-γ, PBL + Cos7/A11 minigene transfectant” value [1] was 11100 pg/mL, the “IFN-γ, PBL + Cos7/A11 minigene transfectant” value [2] was 41 pg/mL and the “IFN-γ, PBL + Cos7/A11 minigene transfectant” value [3] was 38 pg/mL. The “IFN-γ, PBL + pulsed Cos7/A11” value [4] was 39 pg/mL, the “IFN-γ, PBL + pulsed Cos7/A11” value [5] was 36 pg/mL and the “IFN-γ, PBL + Cos7/A11 pulsed at 10^-6 (10^× µM)” value (“IFN-γ … at 10^-6 (10^× µM)” below) [6] was 43 pg/mL. For the same binder, the “IFN-γ, PBL + Cos7/A11 pulsed at 10^-7 (10^× µM)” value (“IFN-γ … at 10^-7 (10^× µM)” below) [6] was 40 pg/mL, the “IFN-γ, PBL + Cos7/A11 pulsed at 10^-8 (10^× µM)” value (“IFN-γ … at 10^-8 (10^× µM)” below) [6] was 46 pg/mL and the “IFN-γ, PBL + Cos7/A11 pulsed at 10^-9 (10^× µM)” value (“IFN-γ … at 10^-9 (10^× µM)” below) [6] was 41 pg/mL. For the same binder, the “IFN-γ, PBL + Cos7/A11 pulsed at 10^-10 (10^× µM)” value (“IFN-γ … at 10^-10 (10^× µM)” below) [6] was 53 pg/mL, the “IFN-γ, PBL + Cos7/A11 pulsed at 10^-11 (10^× µM)” value (“IFN-γ … at 10^-11 (10^× µM)” for short) [6] was 43 pg/mL and the “IFN-γ, PBL + Cos7/A11 pulsed at 10^-12 (10^× µM)” value (from here on “IFN-γ … at 10^-12 (10^× µM)”) [6] was 49 pg/mL. For the same binder, the “IFN-γ, PBL + Cos7/A11 pulsed at 10^-13 (10^× µM)” value (from here on “IFN-γ … at 10^-13 (10^× µM)”) [6] was 49 pg/mL, the “IFN-γ … at 10^-6 (10^× µM)” value [7] was 47 pg/mL and the “IFN-γ … at 10^-7 (10^× µM)” value [7] was 48 pg/mL. The “IFN-γ … at 10^-8 (10^× µM)” value [7] was 49 pg/mL, the “IFN-γ … at 10^-9 (10^× µM)” value [7] was 44 pg/mL and the “IFN-γ … at 10^-10 (10^× µM)” value [7] was 52 pg/mL. For the same binder, the “IFN-γ … at 10^-11 (10^× µM)” value [7] was 49 pg/mL, the “IFN-γ … at 10^-12 (10^× µM)” value [7] was 55 pg/mL and the “IFN-γ … at 10^-13 (10^× µM)” value [7] was 52 pg/mL. For the same binder, the “IFN-γ … at 10^-6 (10^× µM)” value [8] was 50 pg/mL, the “IFN-γ … at 10^-7 (10^× µM)” value [8] was 42 pg/mL and the “IFN-γ … at 10^-8 (10^× µM)” value [8] was 50 pg/mL. For the same binder, the “IFN-γ … at 10^-9 (10^× µM)” value [8] was 50 pg/mL, the “IFN-γ … at 10^-10 (10^× µM)” value [8] was 48 pg/mL and the “IFN-γ … at 10^-11 (10^× µM)” value [8] was 55 pg/mL. For the same binder, the “IFN-γ … at 10^-12 (10^× µM)” value [8] was 47 pg/mL and the “IFN-γ … at 10^-13 (10^× µM)” value [8] was 68 pg/mL.

B2: TRAV4-4/DV10*01/BV12-2*01 murine anti-KRAS G12D TCR (SEQ ID NOs: 157 and 158) (TCR, V domains shown)
V domain 1: GDQVEQSPSALSLHEGTDSALRCNFTTTMRSVQWFRQNSRGSLISLFYLASGTKENGRLKSAFDSKERRYSTLHIRDAQLEDSGTYFCAADSSNTGYQNFYFGKGTSLTVIP
V domain 2: NSGVVQSPRYIIKGKGERSILKCIPISGHLSVAWYQQTQGQELKFFIQHYDKMERDKGNLPSRFSVQQFDDYHSEMNMSALELEDSAVYFCASSLTDPLDSDYTFGSGTRLLVIE
B2 was tested, and the “IFN-γ, PBL + Cos7/A11 pulsed at 10^-6 M” value [9] was 131 pg/mL, the “IFN-γ, PBL + Cos7/A11 pulsed at 10^-7 M” value [9] was 60 pg/mL and the “IFN-γ, PBL + Cos7/A11 pulsed at 10^-8 M” value [9] was 47 pg/mL. The “IFN-γ, PBL + Cos7/A11 pulsed at 10^-9 M” value [9] was 53 pg/mL, the “IFN-γ, PBL + Cos7/A11 pulsed at 10^-10 M” value [9] was 53 pg/mL and the “IFN-γ, PBL + Cos7/A11 pulsed at 10^-11 M” value [9] was 52 pg/mL. For the same binder, the “IFN-γ, PBL + Cos7/A11 pulsed at 10^-12 M” value [9] was 58 pg/mL, the “IFN-γ, PBL + Cos7/A11 pulsed at 10^-13 M” value [9] was 51 pg/mL and the “IFN-γ, PBL + Cos7/A11 pulsed at 10^-6 M” value [10] was 56 pg/mL. The “IFN-γ, PBL + Cos7/A11 pulsed at 10^-7 M” value [10] was 57 pg/mL, the “IFN-γ, PBL + Cos7/A11 pulsed at 10^-8 M” value [10] was 51 pg/mL and the “IFN-γ, PBL + Cos7/A11 pulsed at 10^-9 M” value [10] was 51 pg/mL. For the same binder, the “IFN-γ, PBL + Cos7/A11 pulsed at 10^-10 M” value [10] was 54 pg/mL, the “IFN-γ, PBL + Cos7/A11 pulsed at 10^-11 M” value [10] was 50 pg/mL and the “IFN-γ, PBL + Cos7/A11 pulsed at 10^-12 M” value [10] was 44 pg/mL. The “IFN-γ, PBL + Cos7/A11 pulsed at 10^-13 M” value [10] was 54 pg/mL, the “IFN-γ, PBL + Cos7/A11 pulsed at 10^-6 M” value [11] was 54 pg/mL and the “IFN-γ, PBL + Cos7/A11 pulsed at 10^-7 M” value [11] was 53 pg/mL. For the same binder, the “IFN-γ, PBL + Cos7/A11 pulsed at 10^-8 M” value [11] was 59 pg/mL, the “IFN-γ, PBL + Cos7/A11 pulsed at 10^-9 M” value [11] was 54 pg/mL and the “IFN-γ, PBL + Cos7/A11 pulsed at 10^-10 M” value [11] was 51 pg/mL. For the same binder, the “IFN-γ, PBL + Cos7/A11 pulsed at 10^-11 M” value [11] was 48 pg/mL, the “IFN-γ, PBL + Cos7/A11 pulsed at 10^-12 M” value [11] was 52 pg/mL and the “IFN-γ, PBL + Cos7/A11 pulsed at 10^-13 M” value [11] was 51 pg/mL.
